# Experimental data reported in publication PMC3915908 (Cell Research, 2013).
# T1: C-terminal domain of Pat1 (Pat1C), wild type (S. cerevisiae, UniProt P25644 422-796)
# T1 sequence: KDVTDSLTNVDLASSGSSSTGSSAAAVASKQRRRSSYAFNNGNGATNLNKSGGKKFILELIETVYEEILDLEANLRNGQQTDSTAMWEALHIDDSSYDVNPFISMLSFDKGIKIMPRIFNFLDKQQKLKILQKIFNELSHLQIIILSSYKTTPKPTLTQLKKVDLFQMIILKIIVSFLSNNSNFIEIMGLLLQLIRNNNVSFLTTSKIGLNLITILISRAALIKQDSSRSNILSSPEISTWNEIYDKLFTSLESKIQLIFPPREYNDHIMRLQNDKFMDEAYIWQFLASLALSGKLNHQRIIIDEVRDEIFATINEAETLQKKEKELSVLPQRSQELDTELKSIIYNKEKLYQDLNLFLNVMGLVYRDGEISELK
# How the values were obtained:
# [1] = target: T1, C-terminal domain of Pat1 (Pat1C), wild …; experiment: crystal structure
# [2] = target: T1, C-terminal domain of Pat1 (Pat1C), wild …; experiment: native gel or EMSA
binding result [1],binding result [2],Binder
binds,–,Lsm2 (natural protein) MLFFSFFKTLVDQEVVVELKNDIEIKGTLQSVDQFLNLKLDNISCTDEKKYPHLGSVRNIFIRGSTVRYVYLNKNMVDTNLLQDATRREVMTERK
–,binds,"Lsm2-3 subcomplex, wild type (complex) chain 1: MLFFSFFKTLVDQEVVVELKNDIEIKGTLQSVDQFLNLKLDNISCTDEKKYPHLGSVRNIFIRGSTVRYVYLNKNMVDTNLLQDATRREVMTERK chain 2: METPLDLLKLNLDERVYIKLRGARTLVGTLQAFDSHCNIVLSDAVETIYQLNNEELSESERRCEMVFIRGDTVTLISTPSEDDDGAVEI"
